Source: patent US20250313643A1 (UNM RAINFOREST INNOVATIONS, published 2025)

T1: CCKBR peptide
T1 construct: It may be the same as m3 or m4; also called target CCKBR peptide; target peptide (immunization and selection)
T1 peptide: CETPRIRGTGTRELE


What was measured:
[1] = molecular target: T2, human CCKBR extracellular peptide (human, UniProt P32239 39-53); assay: indirect ELISA on human CCKBR peptide, OD450nm against nM scFv; column head 'Apparent kD (nM)'
T2 construct: domain: extracellular fragment of human CCK-BR; also called human peptide; human CCKBR peptide

[2] = molecular target: T2, human CCKBR extracellular peptide; assay: ELISA affinity measurement
[3] = molecular target: T2, human CCKBR extracellular peptide; assay: Assay and target are not stated on the sheet. The Kd stands in the legend box of an in vivo plot. The text describes affinity measurement of the humanized variants against the human peptide.
[4] = molecular target: T1, CCKBR peptide; assay: ELISA (panel 'Binding Affinity by ELISA'), OD450nm against nM scFv. The coated peptide is not named in the panel.

Row | Kd [1] [nM] | fold improvement in affinity compared with parental mscFv77-2 [2] [fold] | Kd [3] [nM] | Kd [4] [nM] | Binder
1 | 4.3 | > 25 | 3.1 | – | scFv77-2 hu HC2-LC3 (scFv, also called humanized CCKBR scFv HC2-LC3; CCKBR hscFv HC2-LC3) scFv: MAQVQLVQSGAEVKKPGASVKVSCKASGFNIKDYYIHWVRQAPGQGLEWIGWIDPENGDTEYAPKFQGRATMTADTSISTAYMELSRLRSDDTAVYYCNAGGRFAYWGQGTLVTVSSGGGGSGGGGSGGGGSDIQMTQSPSTLSASVGDRVTITCKSSQSLLNSGNQKNYLAWYQQKPGKAPKLLIYGASTRESGVPSRFSGSGSGTEFTLTISSLQPDDFATYYCQNDHSYPYTFGGGTKVEIKENLYFQGAAALEHHHHHH
2 | – | – | 9.8 | – | HC2-LC2 (scFv, also called scFv77-2 hu HC2-LC2; scFv77-2 hu HC2-linker-LC2) scFv (VH-linker-VL, with protease site and His tag): MAQVQLVQSGAEVKKPGASVKVSCKASGFNIKDYYIHWVRQAPGQGLEWIGWIDPENGDTEYAPKFQGRATMTADTSISTAYMELSRLRSDDTAVYYCNAGGRFAYWGQGTLVTVSSGGGGSGGGGSGGGGSDIQMTQSPSSLSASVGDRVTITCKSSQSLLNSGNQKNYLAWYQQKPGKAPKLLIYGASTRESGVPSRFSGSGSGTDFTLTISSLQPEDFATYYCQNDHSYPYTFGGGTKLEIKENLYFQGAAALEHHHHHH
3 | 109 | – | – | 195 | mscFv77-2 Parental (scFv, V domains shown, Murine single-chain Fv; It has a kappa light chain; also called murine parent scFv; parental scFv) VH: EVQLQQAGAELVRSGASVKLSCTASGFNIKDYYIHWVKQRPEQGLEWIGWIDPENGDTEYAPKFQGKATMTADTSSNTAYLQLSSLTSEDTAVYYCNAGGRFAYWGQGTLVTVSA VL: DIVMTQSPSSLSVSAGEKVTMSCKSSQSLLNSGNQKNYLAWYQQKPGQPPKLLIYGASTRESGVPDRFTGSGSGTDFTLTISSVQAEDLAVYYCQNDHSYPYTFGGGTKLEIK
